Literature values as cited in article PMC8138766.
Like-named read-outs stand apart in the source and are kept apart here.

Columns and labels:
[1] = target: V-ATPase subunit C (Saccharomyces cerevisiae) (UniProt P31412)
[2] = target: V-ATPase subunit C (Saccharomyces cerevisiae) (UniProt P31412); remark: listed apart in the source

V-ATPase subunit C (Saccharomyces cerevisiae), sequence (P31412 2-392): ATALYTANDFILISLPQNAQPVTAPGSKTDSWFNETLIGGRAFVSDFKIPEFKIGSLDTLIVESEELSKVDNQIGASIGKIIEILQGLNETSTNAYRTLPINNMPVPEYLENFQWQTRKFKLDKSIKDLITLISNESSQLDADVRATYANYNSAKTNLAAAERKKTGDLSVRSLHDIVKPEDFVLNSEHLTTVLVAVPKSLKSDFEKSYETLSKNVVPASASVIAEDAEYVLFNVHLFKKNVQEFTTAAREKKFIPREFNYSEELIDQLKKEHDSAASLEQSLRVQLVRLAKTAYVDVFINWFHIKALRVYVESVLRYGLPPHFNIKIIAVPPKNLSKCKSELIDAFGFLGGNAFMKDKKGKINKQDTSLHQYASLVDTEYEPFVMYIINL
V1, sequence (P17255 2-1071): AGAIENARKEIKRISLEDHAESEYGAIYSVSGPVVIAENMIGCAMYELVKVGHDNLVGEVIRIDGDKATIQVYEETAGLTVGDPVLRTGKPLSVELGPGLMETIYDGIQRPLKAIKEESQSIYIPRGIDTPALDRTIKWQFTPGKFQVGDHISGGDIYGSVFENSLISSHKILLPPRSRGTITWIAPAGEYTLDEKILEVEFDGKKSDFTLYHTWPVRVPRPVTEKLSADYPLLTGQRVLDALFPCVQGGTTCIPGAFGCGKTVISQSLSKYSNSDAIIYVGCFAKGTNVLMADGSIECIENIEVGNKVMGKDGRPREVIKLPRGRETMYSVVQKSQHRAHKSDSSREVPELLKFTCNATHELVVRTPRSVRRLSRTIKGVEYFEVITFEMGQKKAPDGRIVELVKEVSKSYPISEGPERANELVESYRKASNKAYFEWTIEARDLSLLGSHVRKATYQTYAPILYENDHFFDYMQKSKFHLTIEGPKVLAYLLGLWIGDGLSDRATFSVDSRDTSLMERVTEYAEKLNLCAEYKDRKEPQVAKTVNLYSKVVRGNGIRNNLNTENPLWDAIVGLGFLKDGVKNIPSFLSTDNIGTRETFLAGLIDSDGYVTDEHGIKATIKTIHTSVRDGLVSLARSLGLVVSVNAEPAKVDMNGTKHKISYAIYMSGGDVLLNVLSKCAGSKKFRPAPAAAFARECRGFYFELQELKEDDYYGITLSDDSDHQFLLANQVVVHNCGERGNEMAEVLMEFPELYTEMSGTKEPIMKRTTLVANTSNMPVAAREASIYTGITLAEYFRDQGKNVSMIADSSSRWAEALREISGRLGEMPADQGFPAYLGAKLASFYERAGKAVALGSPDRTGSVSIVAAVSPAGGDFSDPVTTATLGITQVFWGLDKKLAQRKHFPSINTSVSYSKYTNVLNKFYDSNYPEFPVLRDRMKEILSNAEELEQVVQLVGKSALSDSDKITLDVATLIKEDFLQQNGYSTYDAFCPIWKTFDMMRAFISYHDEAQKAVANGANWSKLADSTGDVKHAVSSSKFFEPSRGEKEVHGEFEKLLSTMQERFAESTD
V1, sequence (P16140 2-517, further chain): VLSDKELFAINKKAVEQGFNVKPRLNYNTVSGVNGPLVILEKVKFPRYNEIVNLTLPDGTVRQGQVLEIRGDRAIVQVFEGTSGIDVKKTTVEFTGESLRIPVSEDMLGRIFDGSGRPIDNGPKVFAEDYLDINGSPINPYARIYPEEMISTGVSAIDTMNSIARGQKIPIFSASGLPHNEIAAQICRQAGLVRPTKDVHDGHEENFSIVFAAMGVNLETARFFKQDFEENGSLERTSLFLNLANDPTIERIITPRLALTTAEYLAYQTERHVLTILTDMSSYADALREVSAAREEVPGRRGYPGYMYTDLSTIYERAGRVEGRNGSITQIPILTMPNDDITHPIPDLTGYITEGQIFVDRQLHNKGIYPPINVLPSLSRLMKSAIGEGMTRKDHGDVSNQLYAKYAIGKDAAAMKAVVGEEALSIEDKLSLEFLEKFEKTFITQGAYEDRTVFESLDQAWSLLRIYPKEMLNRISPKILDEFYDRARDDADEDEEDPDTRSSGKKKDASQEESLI
EG stalk, sequence (P22203 2-233): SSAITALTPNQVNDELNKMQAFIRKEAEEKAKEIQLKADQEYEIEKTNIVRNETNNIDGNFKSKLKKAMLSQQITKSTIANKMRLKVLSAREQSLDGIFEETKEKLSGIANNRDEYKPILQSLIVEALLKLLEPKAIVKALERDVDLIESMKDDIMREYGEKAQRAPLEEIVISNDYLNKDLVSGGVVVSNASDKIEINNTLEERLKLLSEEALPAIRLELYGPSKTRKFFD
EG stalk, sequence (P48836 2-114, further chain): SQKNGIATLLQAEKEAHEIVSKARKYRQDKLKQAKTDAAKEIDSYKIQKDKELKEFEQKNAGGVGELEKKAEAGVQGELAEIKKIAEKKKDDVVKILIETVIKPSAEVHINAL

Kd [1] [nM]	Kd [2] [nM]	Substance
42	–	EG stalk (from UniProt P22203)
–	0.7	V1 (from UniProt P17255)
